Results: patent publication US20110300071A1, “TARGETING NPR-C IN ANGIOGENESIS AND ATHEROSCLEROSIS WITH A C-TYPE ATRIAL NATRIURETIC FACTOR (CANF)-COMB NANOCOMPLEX” (Washington University, priority 2010, published 2011)
Positions of bridges follow the written chain, without caps; N, C: chain ends. Residues, ends and D or L forms follow the SMILES beside them. No end group written: not given here. *: point of attachment. DOTA = O=C(O)CN1CCN(CC(=O)O)CCN(CC(=O)*)CCN(CC(=O)O)CC1

Legend:
[1] = test system: atherosclerotic lesions; experiment: MRI of Gadofluorine uptake in atherosclerotic-like lesions; type: in vivo, rabbit; conditions: 3T MRI 1 hour after administration
Procedure: The presence of atherosclerotic lesions in the rabbits was confirmed by 3T MRI 1 hour after administration of a non-receptor specific plaque-targeting contrast agent (Gadofluorine M, 0.5 μmol/kg body weight, Schering AG, Germany) (Sirol, M., et al., Circulation 109:2890-2896, 2004; Zheng, J., et al., Invest. Radiol. 43:49-55, 2008; Meding, J., et al., Mol. Imaging 2:120-129, 2007). […] For scanning, the rabbit was placed supine into a plastic bed. Three micropipette tubes filled with 0.5 mL Gadofluorine M served as fiducial markers, and were taped into position on the bed. At the beginning of the PET study, these tubes were drained of the Gadofluorine by syringe, and refilled with 0.5 mL of ^64Cu to serve as the PET fiducials. These helped to “co-localize” the plaque regions between the two image modalities.

[2] = in vivo; conditions: rabbit, iv, total radioactivity
Procedure: In these experiments, the blood clearance studies were performed in normal rabbits (n=4) to evaluate the pharmacokinetics of tracer in vivo. About 20 MBq of ^64Cu-DOTA-C-ANF was injected intravenously into the left ear of rabbit, and blood sample (0.2 mL) was drawn from the contralacteral ear over the period of 1 h (1 min, 3 min, 5 min, 10 min, 20 min, 40 min and 60 min). The activity of the blood samples were counted in gamma counter and presented in percent injected dose per gram (ID %/g).

[3] = in vitro; type: in vitro ADME; conditions: rabbit, serum
Procedure: On the contrary, only free ^64Cu was detected in the control samples (^64Cu-acetate incubated in rabbit serum) by radio-HPLC.

[4] = target: natriuretic peptide clearance receptor (NPR-C), rabbit (rabbit) (UniProt G1SZF5); experiment: cell-based or functional assay
[5] = target: T1, natriuretic peptide clearance receptor (NPR-C), rabbit (rabbit, UniProt G1SZF5 25-536); experiment: cell-based or functional assay
T1 sequence: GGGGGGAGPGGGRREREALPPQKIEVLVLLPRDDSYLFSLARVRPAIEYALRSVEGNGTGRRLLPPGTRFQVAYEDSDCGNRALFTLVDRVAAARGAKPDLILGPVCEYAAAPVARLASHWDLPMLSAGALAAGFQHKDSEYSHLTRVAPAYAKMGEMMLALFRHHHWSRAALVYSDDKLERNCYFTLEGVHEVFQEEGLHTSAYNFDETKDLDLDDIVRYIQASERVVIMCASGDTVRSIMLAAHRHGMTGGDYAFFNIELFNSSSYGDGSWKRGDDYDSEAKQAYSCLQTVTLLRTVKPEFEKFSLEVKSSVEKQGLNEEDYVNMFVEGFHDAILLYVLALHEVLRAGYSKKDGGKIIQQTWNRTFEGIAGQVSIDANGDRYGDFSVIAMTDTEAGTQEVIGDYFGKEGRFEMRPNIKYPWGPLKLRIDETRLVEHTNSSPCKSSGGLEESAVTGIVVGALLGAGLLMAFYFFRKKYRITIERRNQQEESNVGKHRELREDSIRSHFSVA

[6] = target: T1, natriuretic peptide clearance receptor …; experiment: cell-based or functional assay; remark: listed apart in the source
[7] = target: T2, natriuretic peptide clearance receptor (NPR-C), mouse (mouse, UniProt P70180 41-536); experiment: cell-based or functional assay
T2 sequence (looked up): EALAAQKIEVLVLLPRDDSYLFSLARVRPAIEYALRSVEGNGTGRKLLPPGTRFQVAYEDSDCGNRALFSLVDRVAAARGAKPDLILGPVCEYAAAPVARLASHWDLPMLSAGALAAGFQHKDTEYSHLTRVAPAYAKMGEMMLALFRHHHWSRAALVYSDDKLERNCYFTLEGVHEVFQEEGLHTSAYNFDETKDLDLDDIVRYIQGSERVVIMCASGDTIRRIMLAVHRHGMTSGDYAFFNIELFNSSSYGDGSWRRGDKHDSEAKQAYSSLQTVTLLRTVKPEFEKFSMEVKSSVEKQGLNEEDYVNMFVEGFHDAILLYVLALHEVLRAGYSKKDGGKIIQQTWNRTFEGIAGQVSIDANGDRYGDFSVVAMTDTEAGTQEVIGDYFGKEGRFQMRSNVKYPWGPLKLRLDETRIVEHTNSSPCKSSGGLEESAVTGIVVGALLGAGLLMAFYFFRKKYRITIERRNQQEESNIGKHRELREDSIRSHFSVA

[8] = target: natriuretic peptide clearance receptor (NPR-C), mouse (mouse) (UniProt P70180); experiment: cell-based or functional assay

CC(C(=O)NCC(=O)NCCCC[C@H](NC(=O)CO[C@H]1O[C@H](CO)[C@@H](O)[C@H](O)[C@@H]1O)C(=O)N1CCN(S(=O)(=O)C(F)(F)C(F)(F)C(F)(F)C(F)(F)C(F)(F)C(F)(F)C(F)(F)C(F)(F)F)CC1)N1CCN(CC(=O)O)CCN(CC(=O)O)CCN(CC(=O)O)CC1 (stereo partly shown) [Gadofluorine M]
uptake in control arteries (MRI) [1]: no Gadofluorine M uptake
MRI signal in injured vessels ([1]; all rabbits, all time points): increased signal

CC[C@H](C)[C@@H]1NC(=O)[C@H](CCCNC(=N)N)NC(=O)[C@H](CC(=O)O)NC(=O)[C@H]([C@@H](C)CC)NC(=O)[C@H](CCCNC(=N)N)NC(=O)CNC(=O)CNC(=O)[C@H](Cc2ccccc2)NC(=O)[C@@H](NC(=O)[C@H](CO)NC(=O)[C@H](CO)NC(=O)[C@H](CCCNC(=N)N)NC(=O)CN2CCN(CC(=O)O)CCN(CC(=O)O)CCN(CC(=O)O)CC2)CSSC[C@@H](C(N)=O)NC(=O)[C@H](C)NC(=O)CNC1=O [^64Cu-DOTA-CANF, metal not drawn] ({DOTA}-RSSCFGGRIDRIGAC-NH2; disulfide 4-15)
tissue uptake at 0.05 h [2]: 0.1 %ID/g
remaining at 1 h [3]: 97.7 ± 3.9%

RSSCFGGRIDRIGAC-NH2 (disulfide 4-15; not fully specified; also: 64Cu label) [^64Cu-CANF-Comb (25% CANF-Comb)]
Injury SUV, 1 h [4]: 5.31 SUV
Injury SUV, 4 h [4]: 4.76 SUV
Injury SUV, 24 h [4]: 3.74 SUV
Injury/control SUV ratios, 1 h [4]: 4.07
Injury/control SUV ratios, 4 h [4]: 4.07
Injury/control SUV ratios, 24 h [4]: 4.24
Injury/muscle SUV ratios, 1 h [4]: 38.2
Injury/muscle SUV ratios, 4 h [4]: 37.7
Injury/muscle SUV ratios, 24 h [4]: 40.8

RSSCFGGRIDRIGAC-NH2 (disulfide 4-15; also: DOTA conjugated, site not given here, 64Cu chelated) [^64Cu labeled DOTA-C-type atrial natriuretic factor (CANF) conjugate]
Injury/control SUV ratios, 1 h [5]: 1.87 ratio
Injury/muscle SUV ratios, 1 h [5]: 3.39 ratio
SUV ratio injured/control arteries, blocking with unlabeled C-ANF [6]: 1.07 ratio
SUV ratio injured/control arteries, pre-blocking [6]: 1.42 ratio
target-to-background ratio injured artery/muscle, blocking [6]: 2.13 ratio
target-to-background ratio injured artery/muscle, pre-blocking [6]: 3.05 ratio
ischemic/nonischemic uptake ratio, after blocking with unlabeled CANF [7]: 1.24 ratio
ischemic/nonischemic uptake ratio, before blocking [7]: 2.34 ratio

B1: ^64Cu-DOTA-CANF-Comb nanoprobe (peptide)
peptide: RSSCFGGRIDRIGAC-NH2
modifications: disulfide 4-15; also: acylated with 4-pentynoic anhydride, clicked to azide-PEG methacrylate of PMMA-core/PEG-shell comb copolymer nanoparticle, DOTA in particle core chelates 64Cu
ischemic/nonischemic uptake ratio, 1 h p.i. [8]: 4.35
ischemic/nonischemic uptake ratio, 24 h p.i. [8]: 5.35
tracer uptake in ischemic limb, 1 h p.i. [8]: 6.3 % ID/g
tracer uptake in ischemic limb, 24 h [8]: 8.5 % ID/g
uptake in lesion site with receptor blocking, 1 h [8]: 3.34
uptake in lesion site with receptor blocking, 4 h [8]: 3.34
uptake in lesion site with receptor blocking, 24 h [8]: 3.31
uptake ratio with receptor blocking, 1 h p.i. [8]: 1.93
uptake ratio with receptor blocking, 4 h p.i. [8]: 1.87
uptake ratio with receptor blocking, 24 h p.i. [8]: 1.82
